The text below walks through data of the nanobody polyreactivity screen of Harvey et al. (2022).

This series is described as follows: yeast display, Sf9 membrane polyspecificity reagent, FACS + sequencing; frameworks hold sequencing errors. Put shortly: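 Nanobodies came from a synthetic yeast display library in Saccharomyces cerevisiae BJ5465, induced with galactose for 36–48 hours and stained for 1 hour at 4 °C with 10% biotinylated, detergent-solubilized Sf9 membrane reagent. Cells were enriched on streptavidin microbeads and then FACS-sorted, with low and high (top ~1%) gates set on anti-HA fluorescence for expression and streptavidin fluorescence for reagent binding. Each polyreactivity label reflects the gate a clone came from. Genes were amplified by colony PCR, sequenced by MiSeq 2 × 250 and filtered by CDR length.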
“QVQLVESGGGLVQGGGSLRLSCAASGFTFGRYTMGWYRQAPGKERELVAPISWSGGSTFYADSVKGRFTISRDNAQNTVYFQMNSLKPEDTAVYNCDTRLKSVSGGYNYWGQGTQVTVSS”: the “polyreactivity (PSR sort gate)” value is on record as “high polyreactivity”.

On to “QVQLVESGGGLVQGGGSLRLSCAASGSIFPHNAMGWSRQAPGKERELVASITSRGGITYYADSVKGRFTISRDNAKNPLNLQMNSLKPEDTAVYYCAADLYIYPYDYWGQGTQVTVSS”, for which the “polyreactivity (PSR sort gate)” value was “low polyreactivity”.

Take “QVQLVESGGGLVQGGGSLRLSCAASGSIFTRNAMGWYRQAPGKEREFVAAISSSGVSTYYADSVKGRFTISRDNAKNTVYLQMNSLKPEDTALYYCAARWGTKSGRYDYWGQGTQVTVSS”: the “polyreactivity (PSR sort gate)” value was “high polyreactivity”.

Take “QVQLVESGGGLVQGGGSLRLSCASSGNTFYYYAMGWYRQAPGKERELVAAITRGGSTNYADSVKGRFTISRDNAKNTVYLEMISLKPEDTSVYYCAAEQRAPRFADYDYWGQGTQVTVSS”: the “polyreactivity (PSR sort gate)” value was “low polyreactivity”.

With “QVQLVESGGGLVQLGGSLRLSCAASGSIIFSYAIGWSRQAPWKERELVADNRSSDDDTYYADSVKGRFTISRDNAQNTDYLDMNSLKPEDTGGYYCNADFGYWWDGRRYDYWVQGTQVTVSS”, the “polyreactivity (PSR sort gate)” value is “low polyreactivity”.

For “QVQLVESGGGLVQPGCSLRLSCAASGSTFESYAMGWYRQAPGKERELVAAISWRVGSTYYADSVKGRFTISRDNAKNTVYLQMNSLKPEDNAVYYCASKGWYSHYGGYDYWGQGTQVTVSS”, the “polyreactivity (PSR sort gate)” value is recorded as “low polyreactivity”.

“QVQLVESGGGLVQPGGSLRLRCAASGSTLAYYTMGWSRHAPGKEMELVAAISGSGGSTYYADSVKGRFTIARDNAKNTVYLQMNSLKPEDSAVYYSIAVLYYYTSSEYDYWGQGTQVTVSS”: the “polyreactivity (PSR sort gate)” value is given as “high polyreactivity”.

Consider “QVQLVESGGGLVQPGGSLRLSCAASGFIFGYYTMGWYRQAPGKERELVAVITSNGARTYYADSVKGRFTISRDNAKNTVYLQMNSLKPEDTAVYYCNAYRLSVSVGYDYWGQGTQVTVSS”, for which the “polyreactivity (PSR sort gate)” value was “high polyreactivity”.

In the case of “QVQLVESGGGLVQPGGSLRLSCAASGFIFRNYAMGWYRQAPGQERELVAAITRSGDNTYYADSVKGRFTISRDNAKNTVYLQMNSLKPEDTAVYYCAARDVQYQQALGGDYWGQGTQVTVSS”, the “polyreactivity (PSR sort gate)” value is recorded as “low polyreactivity”.

In the case of “QVQLVESGGGLVQPGGSLRLSCAASGFIFYYYAMGWYRQAPGKERELVAVLTESGSSTYYADSVKGRFTISRDNAKNTVYLQMNSLKPEDTAVYYCNADFWPYTGKYDYWGQGTQVTVSS”, the “polyreactivity (PSR sort gate)” value is given as “low polyreactivity”.

In the case of “QVQLVESGGGLVQPGGSLRLSCAASGFTFSKYAMGWYRQAPGKERELVAAISRSAGSTYYADSVKGRFTISRDNAKNTVYLQMNSLKPEDTAVYYCARDNPRRPSGYNYWGQGTQVTVSS”, the “polyreactivity (PSR sort gate)” value is on record as “high polyreactivity”.

With “QVQLVESGGGLVQPGGSLRLSCAASGIIFGSYAMGWYRQAPGKERELFAAITKSGGSTFYADSVKGRYTISRDNAKNTVYLQMNSLKPEDTAVYYCTAVKYRYLEYNYWGQGTQVTVSS”, the “polyreactivity (PSR sort gate)” value is recorded as “high polyreactivity”.

Regarding “QVQLVESGGGLVQPGGSLRLSCAASGIIFRYYAMGWYRQAPGKERELVAAITWSGGSTYYADSVKGRFTISRDNAKNTVYLQMNRLKPEDTAVFDCAADWWSVRGYAVDYWGQGTQVTVSS”, the “polyreactivity (PSR sort gate)” value is “high polyreactivity”.

In the case of “QVQLVESGGGLVQPGGSLRLSCAASGRIFGYYVMGWYRQAPRKERELVAAITGGGGSTYYADSVKGRFTISRDNEKNTVFLQMNSLKPEDTAVYYCAADLEYTNYDYDYWGQGTQVTVSS”, the “polyreactivity (PSR sort gate)” value was “high polyreactivity”.

With “QVQLVESGGGLVQPGGSLRLSCAASGRNSTYTMGWYRQAPGKERELVATISTDASTNYADSVKGRFTISRDNAKNTVYLQMNSLKPEDTAVYYCAAVIVNQDYDYWGQGTQVTVSS”, the “polyreactivity (PSR sort gate)” value is “low polyreactivity”.

“QVQLVESGGGLVQPGGSLRLSCAASGRTFRWYAMGWYRQEPGKERELVAAISAGGGSTYYADSVKGRFTISRDNAKYTVSLQLTRVKPEDTAVYYCNRVAWNYGFGSSAYGYWGQGTQVTVSS”: the “polyreactivity (PSR sort gate)” value is “high polyreactivity”.

Regarding “QVQLVESGGGLVQPGGSLRLSCAASGSIFAYNAMGWSRQAPGKERELVAAISSGGRTKYADSVKGRFTITRDNAKITVYFQMNRQKPEDTAVYYCAAESYTGKYSWVWKWYDYWGQGTQVSVSS”, the “polyreactivity (PSR sort gate)” value is recorded as “low polyreactivity”.

Take “QVQLVESGGGLVQPGGSLRLSCAASGSIFPRNAMGWYRKAPGKERELVAGISYGGSTTYYADSVKGRFTISRDNAKNTVYLQMNSLKPEDTAVYYCAALQQYRRQTTYSSQLYYWGQGTQVTVSS”: the “polyreactivity (PSR sort gate)” value is “high polyreactivity”.

“QVQLVESGGGLVQPGGSLRLSCAASGSTFEYNAMGWYRQAPGKERELVASSTNYADSVKGRFTISRDNAKNTVYLQMNSLKPEDTAVYYCAREQGVNRNHDYWGQGTQVTVSS”: the “polyreactivity (PSR sort gate)” value is given as “low polyreactivity”.

Take “QVQLVESGGGLVQPGGSLRLSCAASGYTFWQYAMGWYRQAPGKERELVAAISGSGGRTYYADSVKGRFTISRDNAKNTVYLQMNSLKPEDTAVYYCAAPYLRYYLGWYDYWGQGTQVTVSS”: the “polyreactivity (PSR sort gate)” value is “high polyreactivity”.

As to “QVQLVESGGGLVQSGASLRLSCAASGSIFDSYTMGWYRQAPGKEREWVAAISWSGGRTYYADSVKGRFTISRDNAKNTVYLQMNTLKPEDTAVYYCAARNVWKYLFGYDYWGQGTQVTVSS”, the “polyreactivity (PSR sort gate)” value is listed as “high polyreactivity”.

As for “QVQLVESGGGLVQSGGSLRLSCAASGFIFLNYAMGWYRQAPGKERQLVAAITSGGNTTYADSVKGRFTISRDNAKNTVYLQMNSLKPEDTAVYYCAAEWASRYAVFWAYPKYDYWGQGTQVTVAS”, the “polyreactivity (PSR sort gate)” value is on record as “low polyreactivity”.

Regarding “QVQLVESGGGLVQSGGSLRLSCAASGFTFSRYAMGWYRQAPGKERELVAAIRLRDGITYYADSVKVRFTISRDNAKNTVYLQMNSLKPEDTAVYYFNAVNRTPVSQLDYWGQGTQVTVSS”, the “polyreactivity (PSR sort gate)” value is reported as “high polyreactivity”.

For “QVQLVESGGGLVQSGGSLRLSCAASGIIFCRYAMGWYRQAPGKERELVATITWRGGSTYDADSVKGRFTISRDNAKNTVYLQMNSLKPEDTAVYYCAADNRQSRSFRARAYWGQGNQVTVSS”, the “polyreactivity (PSR sort gate)” value was “low polyreactivity”.

For “QVQLVESGGGLVQSGGSLRLSCAASGLIFGRYAMGWYRQAPGKERELVAAISYSGARTYYADSVKGRFTISRDNEKNTVYLQMNSLKPEDTAVYYCAAGPAFRQSEWWKAYDYWGQGTQVTVSS”, the “polyreactivity (PSR sort gate)” value was “high polyreactivity”.

On to “QVQLVESGGGLVQSGGSLRLSCAASGLIFYDNMGWYIQAPGKERELVAAISSSGGSTSYADSVKGRFTISRDNAKNTVYLQMNSLKPEDTAVYYCAADSYPAYLGFVGFDYWGQGTQVTVSS”, for which the “polyreactivity (PSR sort gate)” value is given as “low polyreactivity”.

Take “QVQLVESGGGLVQSGGSLRLSCAASGNTFTFYAMGWYRQAPGKERELVAVISQIADGCTYYADSVKGRFTISRDNSKNSVYLQMNSLKPEDTAVYYCIAQTWDEYWGQGTQVTVSS”: the “polyreactivity (PSR sort gate)” value is “low polyreactivity”.

On to “QVQLVESGGGLVQSGGSLRLSCAASGRTFSKNAMGWYRQAPGKERELVAAISGSGGSTYYADSVKGRFTISRDNAKNTVYLQMNSLKPEDTAVYYCADRYTVRRSGYWGQGTQVTVSS”, for which the “polyreactivity (PSR sort gate)” value was “high polyreactivity”.

With “QVQLVESGGGLVQSGGSLRLSCAASGSIFNLYAMGWYRQAPGKERELVAAINWSGGSTYYADSVNGRFTISRDNAKNTVYLQMNRLKPEDTAVSYCAADAYSTYYGYEGVYWGQGTQVTVSS”, the “polyreactivity (PSR sort gate)” value was “low polyreactivity”.

In the case of “QVQLVESGGGLVQSGGSLRLSCAASGSINVYYAMGLYRQEPGKERDLVAAISASGGSTYYADSVKGRFTISRDNAKNTFYLQMKSLKPEDTAVYYCAADTFYSYYDMDYWGQGTQVTVSS”, the “polyreactivity (PSR sort gate)” value is reported as “low polyreactivity”.

For “QVQLVESGGGLVQSGGSLRLSCAASGSNFITYAMGWYRQAPGKERELVAAIRDSGDRTYYADSVKGRFTISRDNAKNTVYLQMNSLKPEDTAVYYCNARWQEPLKYDYWGQGTQVTVSS”, the “polyreactivity (PSR sort gate)” value is reported as “low polyreactivity”.

“QVQLVESGGGLVQSGGSLRLSCAASGSTFVSNAMGWYRQAPGKERELFAAINGSGGITYYADSVKGRFTISRDNAKNTVYLQMNSLKPEDTAVYYCAAEYDGPYTWVDYYYHYGYWGQGTEVTVSS”: the “polyreactivity (PSR sort gate)” value is listed as “low polyreactivity”.

Consider “QVQLVESGGGLVQSGGSLRLSCAASGSTSTSYVMGWYRQAPGKERELVAVITLRSGVTYYADSVKARFTISRDNPKYTVYLQMNSLKAEDTAVYYCNAATVVYTRVWRGYWGQGTHVTVSS”, for which the “polyreactivity (PSR sort gate)” value is listed as “low polyreactivity”.

Take “QVQLVESGGGLVQSGGSLRLSCAASVIIFAWYAMGWYRQAPGKERELVAAITANSDSTYYADSVKGRFTISRDNAKNTVYLQMNSLKPEDTAVYDCAKRTYSRKFRGAYNYWGQGTQVTVSS”: the “polyreactivity (PSR sort gate)” value is “high polyreactivity”.

On to “QVQLVESGGGLVQSGGSLRLSCADSVRTFNYYAMGWYRQAPGKERELVATISWSGVSTRYADSVKGRFTISRDNEKNTVYLQMNSLKPEDTAVYYCNAGYSKRSFYSAYGYWGQGTQVTVSS”, for which the “polyreactivity (PSR sort gate)” value is “high polyreactivity”.

Regarding “QVQLVESGGGLVQSGGSLRLTCAASGYIFGYYTMGWYRQAPGKERELVATIRSGGSTYYADSVKGRFTISRDNAKNTVFLHMNSLKAEDTAVYYCAIRVRRISEYGYWGQGTQVTVSS”, the “polyreactivity (PSR sort gate)” value is “high polyreactivity”.

Take “QVQLVESGGGLVQSGRSLRLSCAASGSISVWYVMGWYRPAPGKEMELVAAITRSGGSTFYAYSVKGRFTISRDNAKNTVYLQMNSLKPEDTAVYYCAADGGVAWGYGYWGQGTQVTVSS”: the “polyreactivity (PSR sort gate)” value is given as “low polyreactivity”.

Consider “QVQLVESGGGLVQTGGILRLSCAASGRIFYYNAMGWYRQEPGKERDFFAAITSSSGSSTYYADSVKGRFTISLDNAKNTVYLQMNSLKPEVTAVYYCAAVGTFIIRYLSRSSYWGQGTQVTVSS”, for which the “polyreactivity (PSR sort gate)” value is “low polyreactivity”.

In the case of “QVQLVESGGGLVQTGGSLRLSCAASGRIFFDNAMGWYRQAPGKERELVAGIDSGGSTYYADSVKGRFTISRDNAKNTVYLQMNSLKPEDTAVYYCNSDYPPSTQSPLLQSYDYWGQGTQVTVSS”, the “polyreactivity (PSR sort gate)” value is “low polyreactivity”.

For the sequence “QVQLVESGGGLVQVGGSLRLSCAASGFTFYDYAMGWYRQAPGKERELVAAMSRGGSTYYADSVKGRFTISRDNAKNTVYLQMNSLKPEDTAVYYCNARPTRIYHGMGYWGQGTQVTVSW”, the “polyreactivity (PSR sort gate)” value is listed as “low polyreactivity”.

Take “QVQLVESGGGLVQVGGSLRLSCAASGGIFSGNAMGWYRQAPGKERELVAGITNCGRTSYADSVKGRFTISRDNAKNTDYFQMNSLKPEDTAVYYCNAKVGAYLNYGYWGQGTQVTVSS”: the “polyreactivity (PSR sort gate)” value is given as “low polyreactivity”.
